Series [1] has as its target T1, NusA-HuR (UniProt Q15717 1-326). Put plainly: EMSA; 0-3 uM HuR, 100 nM RNA; EMSA: 50 mM Tris pH 7.5, 50 mM KCl, 37 C, 1 h, 100 nM 32P-RNA; 7% native PAGE in 40 mM Tris-acetate pH 8.0, 1 mM EDTA, room temperature. The conditions noted are these: protein: recombinant; tags: N-terminal NusA fusion, TEV site ENLYFQS; Ni-NTA purified; label: 32P.
For series [2], the target named is T1, NusA-HuR. Put plainly: EMSA; EMSA: 50 mM Tris pH 7.5, 50 mM KCl, 37 C, 1 h, 100 nM 32P-RNA; 7% native PAGE in 40 mM Tris-acetate pH 8.0, 1 mM EDTA, room temperature. The settings on record: protein: recombinant; tags: N-terminal NusA fusion, TEV site ENLYFQS; Ni-NTA purified; label: 32P; RNA template with annealed primer.

The source of these data is paper PMC2873509, “The RNA binding protein HuR does not interact directly with HIV-1 reverse transcriptase and does not affect reverse transcription in vitro”.

T1 sequence (Q15717 whole entry, the tested form may be a part): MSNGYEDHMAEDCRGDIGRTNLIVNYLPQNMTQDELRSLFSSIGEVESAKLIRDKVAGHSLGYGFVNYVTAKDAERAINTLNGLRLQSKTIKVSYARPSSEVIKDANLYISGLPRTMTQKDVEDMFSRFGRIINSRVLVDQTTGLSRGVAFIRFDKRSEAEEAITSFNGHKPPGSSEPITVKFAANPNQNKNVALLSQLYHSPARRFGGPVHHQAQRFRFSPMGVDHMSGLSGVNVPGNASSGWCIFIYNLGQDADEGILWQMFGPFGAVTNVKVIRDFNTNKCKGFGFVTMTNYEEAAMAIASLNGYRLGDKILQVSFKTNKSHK

As for UCAGAUAUUUAUAUUUUUAUUUUAUUUUUUUCUACCUUGAGGUCUUUUGA (ssRNA) [ARE-containing synthetic ssRNA (Fig. 2C)], the binding result in the series with NusA-HuR [1] was “binds”.

B1: ARE-containing template/primer (Fig. 4B) (mixed)
RNA: UCAGAUAUUUAUAUUUUUAUUUUAUUUUUUUCUACCUUGAGGUCUUUUGA
DNA: CACTAGTCAAAAGACCTC
With B1, the binding result with NusA-HuR [2] is “binds”.
